Measured values reported in patent US20090169546A1 (published 2009).
No end group written: not given here.

T1: recombinant HMG1 produced in E. coli as calmodulin binding protein (CBP) fusion (human)
T1 chain: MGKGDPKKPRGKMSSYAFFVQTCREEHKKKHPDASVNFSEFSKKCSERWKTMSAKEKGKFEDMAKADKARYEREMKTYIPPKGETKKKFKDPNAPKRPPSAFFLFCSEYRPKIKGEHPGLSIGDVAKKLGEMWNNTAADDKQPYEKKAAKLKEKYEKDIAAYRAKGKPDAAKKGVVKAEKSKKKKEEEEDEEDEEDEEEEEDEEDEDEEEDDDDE

T2: native nuclear HMG1 prepared from 293H cells by freeze thaw (human, UniProt P09429 1-215)
T2 sequence (looked up): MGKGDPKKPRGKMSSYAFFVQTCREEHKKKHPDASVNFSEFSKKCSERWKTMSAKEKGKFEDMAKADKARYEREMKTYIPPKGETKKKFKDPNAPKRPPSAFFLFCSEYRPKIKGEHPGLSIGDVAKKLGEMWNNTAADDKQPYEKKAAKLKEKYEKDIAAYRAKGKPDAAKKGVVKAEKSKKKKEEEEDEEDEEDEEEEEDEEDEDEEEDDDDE

T3: HMGB1 B-box peptide 91-108 (human, also: biotinylated, site not given here)
T3 peptide: DPNAPKRPPSAFFLFCSE

T4: actively secreted HMGB1 of LPS activated HUVEC cells (UniProt P09429 1-215)
T4 sequence (looked up): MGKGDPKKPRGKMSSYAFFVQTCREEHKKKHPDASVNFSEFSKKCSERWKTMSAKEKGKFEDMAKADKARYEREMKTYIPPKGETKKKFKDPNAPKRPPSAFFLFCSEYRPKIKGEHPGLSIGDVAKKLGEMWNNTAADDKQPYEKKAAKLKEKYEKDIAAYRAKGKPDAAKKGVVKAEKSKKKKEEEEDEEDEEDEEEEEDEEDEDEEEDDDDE

T5: nuclear HMGB1 in HUVEC cells (UniProt P09429 1-215)
T5 construct: HUVEC are human cells; also called nuclear HMGB1 (immunostaining)
T5 sequence (looked up): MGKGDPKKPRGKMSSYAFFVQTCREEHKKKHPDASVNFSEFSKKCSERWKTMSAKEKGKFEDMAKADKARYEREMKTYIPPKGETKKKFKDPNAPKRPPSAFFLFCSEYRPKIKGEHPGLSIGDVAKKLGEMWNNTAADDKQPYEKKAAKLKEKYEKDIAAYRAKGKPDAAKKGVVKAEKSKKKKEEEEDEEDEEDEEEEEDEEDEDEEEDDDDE

T6: released HMG1 from the conditioned media of necrotic 293H cells (human, UniProt P09429 1-215)
T6 construct: also called necrotic HMG1
T6 sequence (looked up): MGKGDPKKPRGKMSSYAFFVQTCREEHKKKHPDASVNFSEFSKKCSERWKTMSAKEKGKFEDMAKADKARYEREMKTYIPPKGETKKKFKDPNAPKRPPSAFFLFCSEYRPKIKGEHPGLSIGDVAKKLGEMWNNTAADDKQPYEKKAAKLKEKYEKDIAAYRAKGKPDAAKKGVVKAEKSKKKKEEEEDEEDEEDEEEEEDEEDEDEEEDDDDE

T7: activated HMG1 prepared from LPS stimulated THP-1 cells (human, UniProt P09429 1-215)
T7 construct: also called Native HMGB
T7 sequence (looked up): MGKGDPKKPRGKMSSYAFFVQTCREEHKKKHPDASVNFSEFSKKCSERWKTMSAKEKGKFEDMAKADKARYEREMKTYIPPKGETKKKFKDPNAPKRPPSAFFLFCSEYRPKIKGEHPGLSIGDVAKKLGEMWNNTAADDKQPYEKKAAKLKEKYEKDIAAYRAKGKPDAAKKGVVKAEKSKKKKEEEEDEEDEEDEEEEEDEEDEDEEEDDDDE


Legend:
[1] = target: T1, recombinant HMG1 produced in E. coli as …; test: BIAcore 3000; mAb amine-coupled to CM5, HMG1 injected in two-fold dilutions; steady-state model
Method: HMG1 Binding Affinity via BIAcore Analysis: All experiments were performed on a BIAcore 3000 instrument (BIAcore, Inc., Piscataway, N.J.). Briefly, each mAb was immobilized to a CM5 sensor chip using a standard amine coupling chemistry. Separately a reference (control) flow cell was also prepared. Two-fold, serial dilutions of HMG1 in instrument buffer were sequentially injected at a slow flow rate over the individual mAb and reference flow-cell surfaces. Following the binding and dissociation of HMG1, the mAbs surfaces were regenerated with a brief pulse of 1M NaCl-50 mM NaOH. At the end of each experiment, the binding curves were evaluated using a steady-state model available through the BIAevaluation software supplied by BIAcore, Inc. (Piscataway, N.J.).

[2] = target: T2, native nuclear HMG1 prepared from 293H …; test: HMG1 capture (sandwich) ELISA, FIG. 4B
Method: (§1) Sandwich ELISA (soluble HMG1): Immunoplates (EIA/RIA plate, High binding, Costar) were coated with anti human IgG Fc at 10 μg/ml in PBS (pH 7.2) and incubated at 4° C. overnight. The coating reagent was removed and the plates were rinsed briefly with PBS. The plates were then blocked with 4% milk for 1 hour at 37° C. and rinsed with PBS. The anti-HMG1 antibodies were diluted in 4% milk. For serial dilutions, the antibodies were used at a starting concentration of 20 μg/ml. The diluted anti-HMG1 antibodies were then added into plate and incubated for 1 hr at 37° C. The plate was then washed 10 times with PBST (PBS/0.1% tween 20) and incubate with antigen (HMGB1, 2 μg/ml; or 0.7 μg/ml for native HMGB1) in 4% milk and incubated at 37° C. for 1 h. The plate was then wash 10 times and incubated with mouse anti-HMGB1, 1 μg/ml in 4% milk at 37° C. for 1 h. The plate was washed 10 times and incubated with anti-mouse IgG-HRP at 1:1000 at 37° C. for 1 h. The plate was then washed and developed. HRP activity was detected with Sureblue HRP substrate (KPL). Plates were read at 450 nm using a Kinetic Microplate Reader (Molecular Devices).

[3] = target: T1, recombinant HMG1 produced in E. coli as …; test: ELISA; HMGB1 preincubated with antibody, then added to immobilised RAGE-Fc
Method: HMG1 binding to RAGE-Ig by ELISA: 50 μl/well of RAGE-Fc fusion protein at 5 μg/ml in PBS was added to each well of an ELISA plate and incubated overnight at 4° C. The plate was then blocked with 200 μl of 5% milk at 37° C. for 1 hr and washed 3× with PBS/Tween. 50 μl/well of diluted HMGB1 solution. For dose curves, HMGB1 concentrations started at 4 ug/ml in PBS. For antibody blocking the HMGB1 was preincubated in another plate with human anti-HMG1 antibodies or buffer, then transferred to the RAGE-coated plate. The plates were then incubated at room temperature for 2 hours and washed 3×. To detect any HMG1 bound to the immobilized RAGE-Fc a mixture of biotinylated mouse anti-HMG1 mAbs (10D4, 4H11, 3E10 and 5C12) each at 1 ug/ml, total Ab: 4 ug/ml, were added to each well and the plate was incubated for 1 hour at room temperature. The plate was then washed and Strepavidin-HPR was added to each well and incubated 15 min. The plate was then washed 3× and blotted dry. 100 μl of TMB developing agent was added and the plate read at 650 nm. Values were calculated as percent of inhibition with HMG1 alone equal to 0% inhibition. The data in FIG. 9 and summarized in Table 1 represent the average of two separate experiments.

[4] = target: T1, recombinant HMG1 produced in E. coli as …; test: cell-based or functional assay
[5] = target: T3, HMGB1 B-box peptide 91-108; test: ELISA on biotinylated peptides captured on avidin
Method: The plate was then blocked with 4% milk powder dissolved in PBS at 37° C. for 1 hour. The blocking solution was removed and replaced with human anti-HMG1 antibodies at various concentrations (see FIGS. 5A-B). […] HRP activity was detected with Sureblue HRP substrate (KPL). Plates were read at 450 nm using a Kinetic Microplate Reader (Molecular Devices). […] After washing and blocking with 1% BSA in PBS, the biotinylated peptides were individually added into the avidin coated wells and incubated for 30 min at room temperature. The serial diluted antibody G4, S16 and S6 at the initial concentration at 10 μg/ml were then transferred into the wells followed by adding mouse anti human IgG-HRP conjugate (Pierce). Detection was accomplished by adding 50 μl of tetramethylbenzidine (TMB) substrate (KPL) and the absorbance was read at 450 nm.

[6] = target: T4, actively secreted HMGB1 of LPS …; test: immunofluorescence on LPS treated HUVEC, antibody 1 ug/ml
Method: (§2) Immunofluorescence: Intracytoplasmic (ic) HMGB1 was quantitated by direct immunofluorescence. HUVEC were harvested by trypsin-EDTA treatment and seeded on a glass coverslip. Once the cells are settled, they were stimulated with 0.2 μg/ml of LPS (Sigma) for 4 hours. The cells were fixed in 2% paraformaldehyde for 15 min and then permeabilized in 0.2% Triton X-100 for 2 min. Fixed and permeabilized cells were incubated with anti-HMGB1 antibodies at 1 μg/ml for 1 hour at room temperature. Cells were then washed to remove excess or nonspecifically bound primary antibody followed by incubation with anti human IgG conjugated with fluorescence (Pierce). The sections were mounted with fluoromount (Southern Associates, Birmingham, Ala.), and the images were processed with a Nikon microscope (Japan) and a SPOT imaging system (Diagnostic Instrument).
(§3) As noted above, the different antibodies bind differently to HMGB1 isolated or prepared from different sources. To expand this observation the anti-HMBG1 antibodies G4 and S6 were used for immunostaining of untreated or LPS activated THp-1 (not shown) and HUVEC cells (FIG. 4F). […] As nuclear HMHB1 binds to DNA and histones, which might be disrupted after cell freeze and thaw we immunoprecipitate freeze thaw preparation and probed for histones by Western Blot. No DNA or histones could be detected from this preparation (data not shown). […]

[7] = target: T5, nuclear HMGB1 in HUVEC cells; test: immunofluorescence on HUVEC, antibody 1 ug/ml
Method: as §2, §3

[8] = target: T6, released HMG1 from the conditioned …; test: sandwich ELISA, relative binding
Method: as §1

[9] = target: T7, activated HMG1 prepared from LPS …; test: sandwich ELISA, relative binding
Method: as §1

[10] = target: T2, native nuclear HMG1 prepared from 293H …; test: sandwich ELISA, relative binding
Method: as §1

Binder | Kd [1] | binding result [2] | percent inhibition of HMG1 binding to RAGE [3] | IC50, inhibition of rHMG1 stimulated IL-1β release from human PBMCs [4] | IC50, inhibition of rHMG1 stimulated IL-6 release from human PBMCs [4] | IC50, inhibition of rHMG1 stimulated IL-12 release from human PBMCs [4] | IC50, inhibition of rHMG1 stimulated TNF-α release from human PBMCs [4] | binding result [5] | binding result [6] | binding result [7] | binding result [9] | binding result [10] | IC50, inhibition of HMG1 stimulated NO release from macrophages [4] | binding result [8]
anti-HMG1 antibody S10 (antibody, V domains shown) VH: EVQLLESGGGLVQPGGSLRLSCAASGFTFSWYDMWWVRQAPGKGLEWVSWIVPSGGITAYADSVKGRFTISRDNSKNTLYLQMNSLRAEDTATYYCARGNYGPSPFDYWGQGTLVTVSS VL: DIQMTQSPGTLSLSPGERATLSCRATQSVRKNFLAWYQQKPGQAPRLLIYDASSRATGIPDRFSGSGSGTDFTLTISRLEPEDFAVYYCQQYGNSPIIFGQGTRLEIK | 54 nM | binds | ≥ 35% | 2.59 µg/mL | 0.324 nM | 1.13 µg/mL | 0.875 µg/mL | – | – | – | – | – | – | –
anti-HMG1 antibody S6 (antibody, V domains shown, also called ATCC PTA-6143) VH: EVQLLESGGGLVQPGGSLRLSCAASGFTFSWYDMSWVRQAPGKGLEWVSRISPSGGYTMYADSVKGRFTISRDNSKNTLYLQMNSLRAEDTAVYYCARLEVGATSGGTAFDIWGQGTMVTVSS VL: not shown | 39 nM | – | ≥ 35% | 0.0232 µg/mL | 0.174 nM | – | 0.0182 µg/mL | – | – | – | – | – | 4.15 µg/mL | –
anti-HMG1 antibody S2 (antibody, V domains shown, also called ATCC PTA-6142) VH: EVQLLESGGGLVQPGGSLRLSCAASGFTFSGYMMVWVRQAPGKGLEWVSRISPSGGQTGYADSVKGRFTISRDNSKNTLYLQMNSLRAEDTAVYYCAREEGGSYGAFDIWGQGTMVTVSS VL: not shown | 36 nM | binds | ≥ 35% | 0.22 µg/mL | 0.163 nM | – | 0.0642 µg/mL | – | – | – | – | – | – | –

The next binders have a lower Kd [1] than those just listed; values first:

Kd [1] | binding result [2] | percent inhibition of HMG1 binding to RAGE [3] | IC50, inhibition of rHMG1 stimulated IL-1β release from human PBMCs [4] | IC50, inhibition of rHMG1 stimulated IL-6 release from human PBMCs [4] | IC50, inhibition of rHMG1 stimulated IL-12 release from human PBMCs [4] | IC50, inhibition of rHMG1 stimulated TNF-α release from human PBMCs [4] | binding result [5] | binding result [6] | binding result [7] | binding result [9] | binding result [10] | IC50, inhibition of HMG1 stimulated NO release from macrophages [4] | Binder | binding result [8]
30 nM | – | – | 5.01 µg/mL | 0.9 nM | 0.715 µg/mL | 5.51 µg/mL | binds | binds | binds | binds | binds | – | anti-HMG1 antibody G4 (antibody, V domains shown, also called ATCC PTA-6258) VH: EVQLLESGGGLVQPGGSLRLSCAASGFTFSWYDMTWVRQAPGKGLEWVSSISPSGGYTKYADSVKGRFTISRDNSKNTLYLQMNSLRAEDTAVYYCTTEFYDYLDVWGKGTTVTVSS VL: DIQMTQSPGTLSLSPGEGATLSCRASQSVSSTYLAWYQQKPGQAPRLLIYEASKRATGTPARFSGSGSGTDFTLSISSLEPEDFAVYYCQHRHNWPPQWTFGQGTKVEVK | binds
23 nM | – | ≥ 35% | 6.05 µg/mL | 0.56 nM | 1.24 µg/mL | 1.44 µg/mL | binds | – | – | – | – | – | anti-HMG1 antibody S16 (antibody, V domains shown, also called ATCC PTA-6259) VH: EVQLLESGGGLVQPGGSLRLSCAASGFTFSWYSMLWVRQAPGKGLEWVSYISPSGGFTNYADSVKGRFTISRDNSKNTLYLQMNSLRAEDTAVYYCARWDYNSGWYYDHWGQGTLVTVSS VL: DIQMTQSPDTLSLSPGERATLSCRASQSVNSRNLAWYQQKPGQAPRLLIYGASTRATGIPDRFSGSVSGTEFTLTISSLQPDDFATYYCQQYNSYFTFGQGTKLEIK | –
